Assay results: the DeepSol protein solubility set

Assay: soluble on expression in E. coli; label from the status in PepcDB or PDB records

Soluble on expression in E. coli, not soluble:
MGSDKIHHHHHHMPVTHLAGALCHPTDCTLRASNSQHIATRFNEHSSVSHTRDLDRVQVAERWSRIKECNYVPVKVANTRADLGESLVWDERSGVLYFVDISGGRINGLTPDGEVDCLYESAARIGALALTDRGNLIFTEDASVAIFDVPTRKVSQHSASVHPRSTYRFNDGACDPQGRFVTGLMDEALSDNTGALFRFDWQLSDQVIHDDMGLPTGLAWSHDGHTVYFVDSAARAIYRAEYLIEGRLGAVTLFAETPAELGRPDGLALDREGGLWVCQYHGSCLLRYDRHGYLTDQVLMPVPCPTSCCFGGPGMNTLYISTARYDMTPEDLHHYPDAGDLYAIRPETGGVARHSFKE, MGSDKIHHHHHHMPYINVRGVEHYYEWVKQPSGDLVKPVMVFIHGWAGSARYWISTANALSDQFDCLLYDLRGFGRSQGKPTVAQASESVVGADSTQEKSQAIQELTYEIEEYAEDLVVLLDELKLQRVYVNAHSMGASVATMFFNRYPQRVERGILTCSGIFEYDEKAFAAFHKFGGYVVKFRPKWLGKIPLVDRMFMARFLHRPIPKSERKAFLEDFLVADYDTALGTIFTSVSKAQAEVMPQEFAKLQVPTLLVAGEYDQIIPAKMGRQAASLNDKVEFVLIPNTAHFPMLEDAPTYLRRVREFLQVATPELQTS, MGSDKIHHHHHHMQALERDYGHGDEVASHCHAEDQLIYAASGVMRVSSEGGSWVIPGGHALWMPAGVSHAIRMKGVVCMRTLLLDAHIERCQVIVVSGLLRELILAASRVLNLRDGAHARALILYELAAARRIDAFVPTPQHARLRAWCERFLQDPAQDLTLEQCGAQLNMSARSVARLFQREVGMSYGQWRARARVMLSQQCLADGKPILNVALEHGYQSASAFTAMFKRILGHAPSDWQNGTAREY, MGSDKIHHHHHHMQEYKACAAHTDILKKYGFKVEKGFANFETAYKASYKKQNGPRIAILAEYDALPKIGHGCGHNAYGVTSIAGGILIKELIQKLDLQGEILVIGTPAEETNGAKVDMAKLGIFNDIDVAMSVHPSGEAHIRSGKSHAMEALQFTFKGKTAHAAASPHEGINALDGVLNLFNSINALRQQILSSARIHGIISNGGEAANIIPDLAIANFYVRAETLEYLKELVKKVKNCAKGAALASDTELEITNYETSFANLVTNKKLMKLYEKNLRTLGVTDIRDKEGLGSTDMGDVSHCCPTIHPYFPLTTRHLVGHTIEFATATIQEEAYKGMKEACLAMALSCLDIFEKPEILKEIKEEFYQTFKK, MGSDKIHHHHHHMQFCSSDEFASKTMIKWPWKVQESAHQTALPWQEALSIPLLTCLTEQEQSKLVTLAERFLQQKRLVPLQGFELDSLRSCRIALLFCLPVLELGLEWLDGFHEVLIYPAPFVVDDEWEDDIGLVHNQRIVQSGQSWQQGPIVLNWLDIQDSFDASGFNLIIHEVAHKLDTRNGDRASGVPFIPLREVAGWEHDLHAAMNNIQEEIELVGENAASIDAYAASDPAECFAVLSEYFFSAPELFAPRFPSLWQRFCQFYQQDPLQRLHHANDTDSFSATNVH, MGSDKIHHHHHHMQGDKHRRRVPFASRAEAHARYGAILTEANRHGAQVVLATLAELGRLDLFFLLVVLLKRKDADNDWCFARCREVAASPDGHLDLWAREHYKSTIITFALTIQDILCTPDITVGIFSHSRPGAKAFLQQIKREFEENPVLRAAYPDVLWDNPRTDAPQWSLDGGIVVKRASNPKEATVEAWGLVDGQPIGKHFSLLVYDDVVTPESVTTPDQIRKTTDALAVSYNLGAHGGRRRFIGTRYHFSDTYKDILDRETAVPRIYPATVDGSVTGLPHFLSPEALAAKRRDMGPYIFGCQMLQNPKADDAAGFKAEWLRYWEPSRDLCERMNRYIIVDPAHSKKAAADYTVMWVVGFGADGYRYVIEGVRDRLNLAERTRELFRLVRAHRPLCVGYERYGLQADVEHIRGEQDRTGYHFDIVELGGAMPKADRIRRLVPLFEQGRIFLPGRMSYRDVEGRWRDLTGEFVQEEYLAFPVCGHDDMLDCLARQVDEALGAVFPDEDDYAASVGGMPNDPHAGALTSLGFDDYDPLGHMRASS
